# Publication PMC7615185, “Structural basis for ion selectivity in potassium-selective channelrhodopsins” (Cell, 2023)
# Tests used:
# HcKCR2 = target: T1, HcKCR2 (Hyphochytrium catenoides, UniProt Z9CM73ZIR3); test: cryo-EM structure; assay type: binding; settings: dark state, nanodisc, pH 7.5; covalent Schiff base to K233; 6-s-cis conformer
# T1 construct: M1-D265; MSP1E3D1/SoyPC nanodisc; residues 2-260 modelled (initiator Met lost); homotrimer
# T1 sequence (Z9CM73ZIR3 1-265): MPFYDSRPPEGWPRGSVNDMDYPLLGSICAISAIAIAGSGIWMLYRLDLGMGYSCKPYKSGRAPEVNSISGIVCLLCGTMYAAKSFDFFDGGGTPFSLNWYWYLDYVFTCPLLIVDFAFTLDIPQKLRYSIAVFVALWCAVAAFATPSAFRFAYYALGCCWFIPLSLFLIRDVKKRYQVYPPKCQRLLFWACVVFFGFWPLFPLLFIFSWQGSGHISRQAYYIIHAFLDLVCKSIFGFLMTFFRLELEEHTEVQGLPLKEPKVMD
# [1] = target: HcKCR1 WT (K+-selective channelrhodopsin 1 from Hyphochytrium catenoides) (Hyphochytrium catenoides); test: cryo-EM structure; dark state; protein in MSP1E3D1/SoyPC nanodiscs, 20 mM HEPES-NaOH pH 7.5, 100 mM NaCl; C3 symmetry
# [2] = target: HcKCR2 WT (K+-selective channelrhodopsin 2 from Hyphochytrium catenoides) (Hyphochytrium catenoides); test: as above
compound,measurement,setting,value
CC1=C(/C=C/C(C)=C/C=C/C(C)=C/C=O)C(C)(C)CCC1 [all-trans-retinal],cryo-EM structure,HcKCR2,HcKCR2 thus represents the initial naturally occurring microbial rhodopsin with experimentally demonstrated 6-s-cis-retinal configuration
HcKCR1 WT (K+-selective channelrhodopsin 1 from Hyphochytrium catenoides) (domain or fragment),stoichiometry N,[1],3
HcKCR2 WT (K+-selective channelrhodopsin 2 from Hyphochytrium catenoides) (domain or fragment),stoichiometry N,[2],3
